Measured values published in IntAct's records for PubMed 22265413.

B1: Mixed lineage kinase domain-like protein (Homo sapiens), Q8NB16 (parent)
chain: MENLKHIITLGQVIHKRCEEMKYCKKQCRRLGHRVLGLIKPLEMLQDQGKRSVPSEKLTTAMNRFKAALEEANGEIEKFSNRSNICRFLTASQDKILFKDVNRKLSDVWKELSLLLQVEQRMPVSPISQGASWAQEDQQDADEDRRAFQMLRRDNEKIEASLRRLEINMKEIKETLRQYLPPKCMQEIPQEQIKEIKKEQLSGSPWILLRENEVSTLYKGEYHRAPVAIKVFKKLQAGSIAIVRQTFNKEIKTMKKFESPNILRIFGICIDETVTPPQFSIVMEYCELGTLRELLDREKDLTLGKRMVLVLGAARGLYRLHHSEAPELHGKIRSSNFLVTQGYQVKLAGFELRKTQTSMSLGTTREKTDRVKSTAYLSPQELEDVFYQYDVKSEIYSFGIVLWEIATGDIPFQGCNSEKIRKLVAVKRQQEPLGEDCPSELREIIDECRAHDPSVRPSVDEILKKLSTFSK
B2: Receptor-interacting serine/threonine-protein kinase 3 (Homo sapiens), Q9Y572 (parent)
chain: MSCVKLWPSGAPAPLVSIEELENQELVGKGGFGTVFRAQHRKWGYDVAVKIVNSKAISREVKAMASLDNEFVLRLEGVIEKVNWDQDPKPALVTKFMENGSLSGLLQSQCPRPWPLLCRLLKEVVLGMFYLHDQNPVLLHRDLKPSNVLLDPELHVKLADFGLSTFQGGSQSGTGSGEPGGTLGYLAPELFVNVNRKASTASDVYSFGILMWAVLAGREVELPTEPSLVYEAVCNRQNRPSLAELPQAGPETPGLEGLKELMQLCWSSEPKDRPSFQECLPKTDEVFQMVENNMNAAVSTVKDFLSQLRSSNRRFSIPESGQGGTEMDGFRRTIENQHSRNDVMVSEWLNKLNLEEPPSSVPKKCPSLTKRSRAQEEQVPQAWTAGTSSDSMAQPPQTPETSTFRNQMPSPTSTGTPSPGPRGNQGAERQGMNWSCRTPEPNPVTGRPLVNIYNCSGVQVGDNNYLTMQQTTALPTWGLAPSGKGRGLQHPPPVGSQEGPKDPEAWSRPQGWYNHSGK
partner: B1 chain

Variants of: B1
Conditions: with ripk3_human RIPK3, Q9Y572

effect of a mutation on the interaction	Variant
decreasing interaction	MENLKHIITLGQVIHKRCEEMKYCKKQCRRLGHRVLGLIKPLEMLQDQGKRSVPSEKLTTAMNRFKAALEEANGEIEKFSNRSNICRFLTASQDKILFKDVNRKLSDVWKELSLLLQVEQRMPVSPISQGASWAQEDQQDADEDRRAFQMLRRDNEKIEASLRRLEINMKEIKETLRQYLPPKCMQEIPQEQIKEIKKEQLSGSPWILLRENEVSTLYKGEYHRAPVAIKVFKKLQAGSIAIVRQTFNKEIKTMKKFESPNILRIFGICIDETVTPPQFSIVMEYCELGTLRELLDREKDLTLGKRMVLVLGAARGLYRLHHSEAPELHGKIRSSNFLVTQGYQVKLAGFELRKTQEDMSLGTTREKTDRVKSTAYLSPQELEDVFYQYDVKSEIYSFGIVLWEIATGDIPFQGCNSEKIRKLVAVKRQQEPLGEDCPSELREIIDECRAHDPSVRPSVDEILKKLSTFSK [T357E;S358D]
disrupting interaction	MENLKHIITLGQVIHKRCEEMKYCKKQCRRLGHRVLGLIKPLEMLQDQGKRSVPSEKLTTAMNRFKAALEEANGEIEKFSNRSNICRFLTASQDKILFKDVNRKLSDVWKELSLLLQVEQRMPVSPISQGASWAQEDQQDADEDRRAFQMLRRDNEKIEASLRRLEINMKEIKETLRQYLPPKCMQEIPQEQIKEIKKEQLSGSPWILLRENEVSTLYKGEYHRAPVAIKVFKKLQAGSIAIVRQTFNKEIKTMKKFESPNILRIFGICIDETVTPPQFSIVMEYCELGTLRELLDREKDLTLGKRMVLVLGAARGLYRLHHSEAPELHGKIRSSNFLVTQGYQVKLAGFELRKTQAAMSLGTTREKTDRVKSTAYLSPQELEDVFYQYDVKSEIYSFGIVLWEIATGDIPFQGCNSEKIRKLVAVKRQQEPLGEDCPSELREIIDECRAHDPSVRPSVDEILKKLSTFSK [T357A;S358A]

Variants of: B2
Conditions: with mlkl_human MLKL

effect of a mutation on the interaction	Variant
disrupting interaction	S227A
disrupting interaction	D142N

Variants of: B2
Conditions: with mlkl_human MLKL
Remark: another data set of the same source

effect of a mutation on the interaction	Variant
decreasing interaction	K50A
